Test results as given in patent CN107793480A (SHANGHAI JIBEI BIOLOGICAL TECH CO LTD, dated 2018).

Tests used:
[1] = target: CD19 (antigen of the phage competition ELISA) (human) (UniProt P15391); experiment: phage competition ELISA on CD19; competitor 3ug/ml FMC63mIgG2a, anti-mouse Fc detection
CD19-His = target: T1, CD19-His (human, UniProt P15391 20-291); experiment: BLI (ForteBio Octet), CD19-His amine-coupled to AR2G sensor, scFv-hIgG1 in solution
T1 construct: Amine-coupled to AR2G biosensors for BLI; also called CD19-His抗原; not shown: His tag
T1 sequence (looked up): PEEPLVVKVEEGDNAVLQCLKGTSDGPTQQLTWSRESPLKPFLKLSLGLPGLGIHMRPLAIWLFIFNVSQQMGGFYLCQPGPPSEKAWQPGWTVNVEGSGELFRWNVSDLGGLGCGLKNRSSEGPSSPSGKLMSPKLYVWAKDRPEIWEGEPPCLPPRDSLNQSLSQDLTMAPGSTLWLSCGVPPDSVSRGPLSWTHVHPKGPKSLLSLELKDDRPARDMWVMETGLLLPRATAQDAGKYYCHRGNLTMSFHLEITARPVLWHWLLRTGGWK

CD19 on Raji cells [2] = target: T2, CD19 on Raji cells (human, UniProt P15391 20-556); experiment: flow cytometry on Raji cells, scFv-hIgG1, all four in one experiment
T2 construct: whole, on cells; also called Raji细胞(CD19+)
T2 sequence (looked up): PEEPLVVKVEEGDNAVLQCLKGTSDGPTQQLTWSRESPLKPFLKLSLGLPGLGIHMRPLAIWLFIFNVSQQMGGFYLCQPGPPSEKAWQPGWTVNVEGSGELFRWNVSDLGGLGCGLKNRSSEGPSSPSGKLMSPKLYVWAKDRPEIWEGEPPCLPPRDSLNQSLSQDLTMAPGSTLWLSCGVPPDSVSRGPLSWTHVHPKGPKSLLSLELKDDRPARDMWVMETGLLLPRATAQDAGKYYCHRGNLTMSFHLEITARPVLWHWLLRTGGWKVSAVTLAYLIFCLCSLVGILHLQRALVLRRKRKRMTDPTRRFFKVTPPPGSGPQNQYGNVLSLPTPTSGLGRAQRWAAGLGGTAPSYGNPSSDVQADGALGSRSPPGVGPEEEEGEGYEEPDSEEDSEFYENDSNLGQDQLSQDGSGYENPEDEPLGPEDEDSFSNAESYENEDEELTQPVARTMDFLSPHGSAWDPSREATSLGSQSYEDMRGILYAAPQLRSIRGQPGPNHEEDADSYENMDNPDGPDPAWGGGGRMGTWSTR

CD19 on Raji cells [3] = target: T2, CD19 on Raji cells; experiment: flow cytometry on Raji cells, anti-human IgG Fc-PE, MFI against concentration

“NC (negative control in the phage ELISAs)” was tested, and the Emax(最大抑制率) [1] was 19%.

“NC (negative control in the scFv-hIgG1 BLI table)” showed a Response (CD19-His) of 0.09.

B1: 7E11-hIgG1 (Fc fusion)
chain: EIVMTQSPATLSLSPGERATLSCRASQDISKYLNWYQQKPGQAPRLLIYHTSRLHSGIPARFSGSGSGTDYTLTISSLQPEDFAVYFCQQGKTFPLTFGQGTKLEIKGGGGSGGGGSGGGGSQVQLQESGPGLVKPSETLSLTCTVSGFSLEDYGVSWIRQPPGKGLEWIGVIWGSETTYYNSSLKSRVTISKDNSKNQVSLKLSSVTAADTAVYYCAKHYYYGGSYAMDYWGQGTLVTVSS
notes: not shown: human IgG1 Fc (hIgG1Fc) from vector pGCIgGH1
B1 showed an EC50 (CD19 on Raji cells [2]) of 0.36 µg/mL.

B2: C2146-hIgG1 (Fc fusion)
chain: EIVMTQSPATLSLSPGERATLSCRASQDISKYLNWYQQKPGQAPRLLIYHTSRLHSGIPARFSGSGSGTDYTLTISSLQPEDFAVYFCQQGNTLPYTFGQGTKLEIKGGGGSGGGGSGGGGSQVQLQESGPGLVKPSETLSLTCTVSGVSLPDYGVSWIRQPPGKGLEWIGVIWGSETTYYNSSLKSRVTISKDNSKNQVSLKLSSVTAADTAVYYCAKHYYYGGSYAMDYWGQGTLVTVSS
notes: also called C2146 scFv-hIgG1; not shown: human IgG1 Fc (hIgG1Fc) from vector pGCIgGH1
Molecule B2 has an EC50 (CD19 on Raji cells [2]) of 2.63 µg/mL.

B3: 4B10-hIgG1 (Fc fusion)
chain: EVKLQESGPGLVAPSQSLSVTCTVSGFSLEDYGVSWIRQPPRKGLEWLGVIWGSETTYYNSALKSRLTIIKDNSKSQVFLKMNSLQTDDTAIYYCAKHYYYGGSYAMDYWGQGTSVTVSSGGGGSGGGGSGGGGSDIQMTQTTSSLSASLGDRVTISCRASQDISKYLNWYQQKPDGTVKLLIYHTSRLHSGVPSRFSGSGSGTDYSLTISNLEQEDIATYFCQQGNTLPYTFGGGTKLEIT
notes: Secreted scFv-hIgG1Fc fusion from 293 cells, protein A purified; Junction between scFv and Fc not described; also called 4B10 scFv-hIgG1Fc融合蛋白; not shown: human IgG1 Fc (hIgG1Fc) from vector pGCIgGH1
B3 showed a Response (CD19-His) of 0.35, a koff (CD19-His) of 0.000895 s⁻¹ and an EC50 (CD19 on Raji cells [3]) of 0.16 µg/mL.

B4: 8A10-hIgG1 (Fc fusion)
chain: EVKLQESGPGLVAPSQSLSVTCTVSGVSLPDYGVSWIRQPPRKGPEWLGVIWGSETTYYNSALKSRLTIIKDNSKSQVFLKMNSLQTDDTAIYYCAKHYYYGGSYAMDYWGQGTSVTVSSGGGGSGGGGSGGGGSDIQMTQTTSSLSASLGDRVTISCRASQDISKYLNWYQQKPDGTVKLLIYHTSRLHSGVPSRFSGSGSGTDYSLTISNLEQEDIATYFCQQGKTFPLTFGGGTKLEIT
notes: Secreted scFv-hIgG1Fc fusion from 293 cells, protein A purified; also called 8A10 scFv-hIgG1Fc融合蛋白; not shown: human IgG1 Fc (hIgG1Fc) from vector pGCIgGH1
B4 showed a Response (CD19-His) of 0.418, a koff (CD19-His) of 0.000913 s⁻¹ and an EC50 (CD19 on Raji cells [3]) of 0.13 µg/mL.

B5: C21-hIgG1 (Fc fusion)
chain: EVKLQESGPGLVAPSQSLSVTCTVSGFSLEDYGVSWIRQPPRKGLEWLGVIWGSETTYYNSALKSRLTIIKDNSKSQVFLKMNSLQTDDTAIYYCAKHYYYGGSYAMDYWGQGTSVTVSSGGGGSGGGGSGGGGSDIQMTQTTSSLSASLGDRVTISCRASQDISKYLNWYQQKPDGTVKLLIYHTSRLHSGVPSRFSGSGSGTDYSLTISNLEQEDIATYFCQQGKTFPLTFGGGTKLEIT
notes: also called 4B10&8A10组合突变; not shown: human IgG1 Fc (hIgG1Fc) from vector pGCIgGH1
B5 showed an EC50 (CD19 on Raji cells [2]) of 0.23 µg/mL and an EC50 (CD19 on Raji cells [3]) of 0.09 µg/mL.
